Reference: IntAct's records for PubMed 28776325

Tests used:
rab4a_human RAB4A [1] = target: rab4a_human RAB4A (UniProt P20338)
rab4a_human RAB4A [2] = target: rab4a_human RAB4A (UniProt P20338); remark: listed apart in the source

Sequence of rab4a_human RAB4A (P20338 whole entry): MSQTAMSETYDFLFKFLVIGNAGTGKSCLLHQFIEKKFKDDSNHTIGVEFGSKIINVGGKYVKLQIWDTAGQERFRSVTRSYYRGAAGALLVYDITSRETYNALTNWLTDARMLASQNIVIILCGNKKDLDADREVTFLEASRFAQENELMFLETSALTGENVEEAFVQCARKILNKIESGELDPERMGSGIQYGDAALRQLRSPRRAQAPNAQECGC
Sequence of Protein NDRG1 (Homo sapiens), Q92597 L146P (Q92597 whole entry L146P): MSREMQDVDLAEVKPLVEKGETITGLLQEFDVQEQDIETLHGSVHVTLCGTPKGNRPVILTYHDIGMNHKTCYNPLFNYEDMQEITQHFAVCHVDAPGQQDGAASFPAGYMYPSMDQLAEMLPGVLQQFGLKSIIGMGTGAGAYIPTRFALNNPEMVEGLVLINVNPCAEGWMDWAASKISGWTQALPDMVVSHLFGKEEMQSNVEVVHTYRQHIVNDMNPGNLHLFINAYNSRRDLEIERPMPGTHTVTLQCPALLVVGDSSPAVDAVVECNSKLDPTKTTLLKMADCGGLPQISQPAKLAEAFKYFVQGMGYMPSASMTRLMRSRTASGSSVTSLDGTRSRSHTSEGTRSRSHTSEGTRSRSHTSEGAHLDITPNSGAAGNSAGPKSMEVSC
Sequence of Protein NDRG1 (Homo sapiens), Q92597 R234Q (Q92597 whole entry R234Q): as the sequence (Q92597 whole entry L146P) above, with P146L, R234Q counted along it

| effect of a mutation on the interaction (rab4a_human RAB4A [1]) | effect of a mutation on the interaction (rab4a_human RAB4A [2]) | Substance |
| --- | --- | --- |
| with no effect | decreasing interaction strength | Protein NDRG1 (Homo sapiens), Q92597 L146P |
| with no effect |  | Protein NDRG1 (Homo sapiens), Q92597 R234Q |
